Measurements from article PMC3058729.

Biological target: GST fusion protein of the cytoplasmic region of DSC2a A897fsX900 (aa 716–899) (human) (UniProt Q02487)
Experiment: pull-down

Sequence of UniProt Q02487 (Q02487 716-899): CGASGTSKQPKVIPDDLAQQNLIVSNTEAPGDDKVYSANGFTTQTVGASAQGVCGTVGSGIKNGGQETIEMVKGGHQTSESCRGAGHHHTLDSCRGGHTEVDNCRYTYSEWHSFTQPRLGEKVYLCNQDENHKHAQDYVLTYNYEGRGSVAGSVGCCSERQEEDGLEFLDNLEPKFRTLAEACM

reduction of binding against DSC2a WT (densitometry): 50%
B1: plakoglobin (PG), endogenous in adult rat heart lysate (natural protein)
chain: MEVMNLIEQPIKVTEWQQTYTYDSGIHSGVNTCVPSVSSKGLLDEDDTCGRQYTLKKTTTYTQGVPQSQGDLEYQMSTTARAKRVREAMCPGVSGEDSSLLLATQVEGQTTNLQRLAEPSQLLKSAIVHLINYQDDAELATRALPELTKLLNDEDPVVVTKAAMIVNQLSKKEASRRALMGSPQLVAAVVRTMQNTSDLDTARCTTSILHNLSHHREGLLAIFKSGGIPALVRMLSSPVESVLFYAITTLHNLLLYQEGAKMAVRLADGLQKMVPLLNKNNPKFLAITTDCLQLLAYGNQESKLIILANGGPQGLVQIMRNYSYEKLLWTTSRVLKVLSVCPSNKPAIVEAGGMQALGKHLTSNSPRLVQNCLWTLRNLSDVATKQEGLENVLKILVNQLSVDDVNVLTCATGTLSNLTCNNSKNKTLVTQNSGVEALIHAILRAGDKDDITEPAVCALRHLTSRHPEAEMAQNSVRLNYGIPAIVKLLNQPNQWPLVKATIGLIRNLALCPANHAPLQEAAVIPRLVQLLVKAHQDAQRHVAAGTQQPYTDGVRMEEIVEGCTGALHILARDPMNRMEIFRLNTIPLFVQLLYSSVENIQRVAAGVLCELAQDKEAADAIDAEGASAPLMELLHSRNEGTATYAAAVLFRISEDKNPDYRKRVSVELTNSLFKHDPAAWEAAQSMIPINEPYADDMDATYRPMYSSDVPLDPLDMHMDMDGDYPMDTYSDGLRPPYPAADHMLA
